The text below walks through data of patent publication US20070207463A1, “Method” (priority 2003, published 2007).

Format in all cases: biochemical, Pantoea dispersa SB1043
Data set [1] deals with Pantoea dispersa AlbD variant AlbD-M1, Ser40Gly (A118G), FIG. 3 (Pantoea dispersa, UniProt O07822, S40G). Briefly: Enzyme kinetics of AlbD-M1 with p-nitrophenyl compounds. As to conditions: PBS pH 7.4, room temperature, O.D405, means of triplicate. The procedure:
(§1) Purification of AlbD and variants. The coding sequence of albD was amplified by PCR using forward primer 5′-[…]-3′ and reverse primer 5′-[…]-3′. The PCR product was digested by BamHI and EcoRI and fused in-frame to GST (glutathione S-transferase) gene in expression vector pGEX-2T (Pharmacia). E. coli DH5α containing the GST-AlbD fusion construct was grown in LB medium at 30° C. overnight. The cells were harvested by centrifuging at 5000 rpm for 10 minutes. The cells were resuspended in PBS buffer (pH7.4) and lysed by using a French Pressure Cell Press (Aim-Aminco) at 1100 psi. The lysate was centrifuged at 18000 rpm for 60 min at 4° C. The supernatant was loaded in the pre-equilibrated Gluthione Sepharose 4B affinity column and washed with PBS buffer (pH 7.4) to remove non-specifically bound proteins. […] The enzyme purity was determined using SDS-PAGE and stored at −80° C. in PBS buffer containing 50% glycerol. The AlbD variants were purified using the same method.
(§2) Kinetics analysis of wild type AlbD and its variants. Enzyme kinetics of AlbD and variants were determined using p-nitrophenyl compounds, the commonly used esterase substrates. The reaction was conducted in 165 μl PBS buffer (pH 7.4) containing enzyme (0.3-0.6 μM), and 3 mM p-nitrophenayl compounds at room temperature for 5 minutes and O.D405 was determined. For kinetics assay, we used the Kinetics program in the Athous spectrometer (Australia) to obtain slopes with different enzyme concentrations, and then calculated Km/Vmax and Kcat/Km by Lineweaver-Burk equation.

Data set [2] addresses Pantoea dispersa AlbD variant AlbD-M2, Glu25Arg (A74G)/Lys27Glu (A79G)/Ser40Gly (A118G) (Pantoea dispersa, UniProt O07822, K27E/Q25R/S40G). The experiment in a line: Enzyme kinetics of AlbD-M2 with p-nitrophenyl compounds. The settings on record: PBS pH 7.4, room temperature, O.D405, means of triplicate. The procedure: as §1, §2
In data set [3] the test system is CC(=O)Oc1ccc([N+](=O)[O-])cc1. The experiment in a line: Enzyme kinetics of wild type AlbD with p-nitrophenyl compounds. The settings on record: other: wild type AlbD, PBS pH 7.4, room temperature, O.D405, Lineweaver-Burk, means of triplicate. The procedure:
as §1, §2

Data set [4] concerns CCCC(=O)Oc1ccc([N+](=O)[O-])cc1. The data set is described as above. As to conditions: other: wild type AlbD, PBS pH 7.4, room temperature, O.D405, Lineweaver-Burk, means of triplicate. How it is done:
as §1, §2

For data set [5], the system named is CCCCC(=O)Oc1ccc([N+](=O)[O-])cc1. The data set is described as above. As to conditions: other: wild type AlbD, PBS pH 7.4, room temperature, O.D405, Lineweaver-Burk, means of triplicate. How it is done:
as §1, §2

Data set [6] relates to CCCCCC(=O)Oc1ccc([N+](=O)[O-])cc1. Described as above. As to conditions: other: wild type AlbD, PBS pH 7.4, room temperature, O.D405, Lineweaver-Burk, means of triplicate. The procedure: as §1, §2
Data set [7] concerns the target Pantoea dispersa AlbD (albicidin detoxifying enzyme, carboxyl esterase), wild type (Pantoea dispersa, UniProt O07822). The description is as above. As to conditions: PBS pH 7.4, room temperature, O.D405, means of triplicate. The procedure: as §1, §2
Data set [8] has as its system CC(=O)Oc1ccc([N+](=O)[O-])cc1. The experiment in a line: Enzyme kinetics of AlbD-M2 with p-nitrophenyl compounds. The settings on record: other: AlbD-M2, PBS pH 7.4, room temperature, O.D405, Lineweaver-Burk, means of triplicate. The procedure:
as §1, §2

In data set [9] the test system is CCCC(=O)Oc1ccc([N+](=O)[O-])cc1. The description is as above. As to conditions: other: AlbD-M2, PBS pH 7.4, room temperature, O.D405, Lineweaver-Burk, means of triplicate. How it is done: as §1, §2
Data set [10] has as its system CCCCCC(=O)Oc1ccc([N+](=O)[O-])cc1. The description is as above. The settings on record: other: AlbD-M2, PBS pH 7.4, room temperature, O.D405, Lineweaver-Burk, means of triplicate. The procedure:
as §1, §2

For data set [11], the system named is CC(=O)Oc1ccc([N+](=O)[O-])cc1. The experiment in a line: Enzyme kinetics of AlbD-M1 with p-nitrophenyl compounds. The settings on record: other: AlbD-M1, PBS pH 7.4, room temperature, O.D405, Lineweaver-Burk, means of triplicate. How it is done: as §1, §2
The test system of data set [12] is CCCC(=O)Oc1ccc([N+](=O)[O-])cc1. Described as above. The settings on record: other: AlbD-M1, PBS pH 7.4, room temperature, O.D405, Lineweaver-Burk, means of triplicate. How it is done:
as §1, §2

Data set [13] deals with CCCCC(=O)Oc1ccc([N+](=O)[O-])cc1. The description is as above. As to conditions: other: AlbD-M1, PBS pH 7.4, room temperature, O.D405, Lineweaver-Burk, means of triplicate. The procedure:
as §1, §2

Data set [14] concerns CCCCCC(=O)Oc1ccc([N+](=O)[O-])cc1. The data set is described as above. As to conditions: other: AlbD-M1, PBS pH 7.4, room temperature, O.D405, Lineweaver-Burk, means of triplicate. The procedure: as §1, §2

In general, Km refers to the substrate concentration at which the rate is half of its maximum. As a reminder, the kcat is the number of substrate molecules converted per active site and unit of time at saturation. Usually kcat/Km stands for the second-order rate constant that governs catalysis at low substrate concentration.

Chain of Pantoea dispersa AlbD variant AlbD-M2, Glu25Arg (A74G)/Lys27Glu (A79G)/Ser40Gly (A118G) (O07822 entry or part of it Q25R/K27E/S40G): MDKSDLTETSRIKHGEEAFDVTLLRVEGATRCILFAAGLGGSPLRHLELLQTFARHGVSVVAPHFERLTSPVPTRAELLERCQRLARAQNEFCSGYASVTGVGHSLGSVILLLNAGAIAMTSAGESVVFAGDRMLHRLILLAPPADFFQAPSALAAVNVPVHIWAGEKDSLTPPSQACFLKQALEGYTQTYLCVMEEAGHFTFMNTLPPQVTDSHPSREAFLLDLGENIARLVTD
Chain of Pantoea dispersa AlbD variant AlbD-M1, Ser40Gly (A118G), FIG. 3 (O07822 entry or part of it S40G): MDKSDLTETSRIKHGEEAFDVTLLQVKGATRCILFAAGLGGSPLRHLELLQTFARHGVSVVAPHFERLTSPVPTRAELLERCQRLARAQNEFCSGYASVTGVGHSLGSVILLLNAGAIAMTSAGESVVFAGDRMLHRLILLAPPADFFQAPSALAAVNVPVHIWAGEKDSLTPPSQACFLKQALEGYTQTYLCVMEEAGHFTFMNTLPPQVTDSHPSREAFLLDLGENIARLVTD
Chain of Pantoea dispersa AlbD (albicidin detoxifying enzyme, carboxyl esterase), wild type (O07822 entry or part of it): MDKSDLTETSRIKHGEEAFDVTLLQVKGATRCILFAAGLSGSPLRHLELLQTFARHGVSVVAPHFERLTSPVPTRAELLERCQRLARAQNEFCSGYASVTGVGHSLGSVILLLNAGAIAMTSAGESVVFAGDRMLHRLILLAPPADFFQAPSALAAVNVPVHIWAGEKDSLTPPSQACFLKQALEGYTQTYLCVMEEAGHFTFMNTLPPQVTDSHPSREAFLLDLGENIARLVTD

As for `CCCCC(=O)Oc1ccc([N+](=O)[O-])cc1` [p-nitrophenyl velerate, p-nitrophenyl valerate], the Kcat in data set [1] was 8.8 × 10^−1 S^−1.
In the case of `CCCCCC(=O)Oc1ccc([N+](=O)[O-])cc1` [p-nitrophenyl caproate], the Kcat in data set [1] is on record as 4.2 × 10^−1 S^−1; in data set [2], 1.3 × 10^−1 S^−1.
Consider “Pantoea dispersa AlbD (albicidin detoxifying enzyme, carboxyl esterase), wild type (Pantoea dispersa)”, for which the Michaelis constant (Km) in [3] is 68000 µM; in data set [4] it was 190 µM; in [5], 1700 µM; in data set [6] it was 2500 µM. Further, the kcat in data set [4] came to 0.1 s⁻¹; in [5] it was 0.28 s⁻¹; in data set [6], 0.11 s⁻¹. For the same compound, the values for the kcat/Km in data set [4], in [5] and in [6] were 526 M⁻¹ s⁻¹, 165 M⁻¹ s⁻¹ and 55.6 M⁻¹ s⁻¹, respectively.
For `CCCC(=O)Oc1ccc([N+](=O)[O-])cc1` [p-nitrophenyl butyrate], the Kcat in data set [1] is 2.5 × 10^−1 S^−1; in [2], 2.8 × 10^−2 S^−1.
`CC(=O)Oc1ccc([N+](=O)[O-])cc1` [p-nitrophenol acetate, p-nitrophenyl acetate]: the Kcat in data set [7] is 3.8 × 10^−3 S^−1; in data set [1] it was 9.1 × 10^−2 S^−1; in data set [2] it was 1.5 × 10^−2 S^−1.
For the compound “Pantoea dispersa AlbD variant AlbD-M2, Glu25Arg (A74G)/Lys27Glu (A79G)/Ser40Gly (A118G) (Pantoea dispersa; K27E/Q25R/S40G)”, the Km in data set [8] was 13000 µM; in [9] it was 23 µM; in [10] it was 66000 µM.
In the case of “Pantoea dispersa AlbD variant AlbD-M1, Ser40Gly (A118G), FIG. 3 (Pantoea dispersa; S40G)”, the Michaelis-Menten constant (Km) in [11] amounted to 94000 µM; in [12], 11 µM; in data set [13], 400 µM; in data set [14], 250 µM.
On to `CCC(=O)Oc1ccc([N+](=O)[O-])cc1` [p-nitrophenol propionate, p-nitrophenyl propionate], for which the Kcat is listed as 8.3 × 10^−2 S^−1 in [7], 2.7 × 10^−1 S^−1 in data set [1] and 1.0 × 10^−1 S^−1 in data set [2].
